Values quoted from earlier work, collected in US8633160B2, “Small molecule inhibitors of PDZ interactions” (Nono Inc., priority 2005, dated 2014).

How the values were obtained:
N-type calcium channel = N-type calcium channel (Homo sapiens, UniProt Q00975); conditions: data of U.S. Provisional Application No. 60/904,507; cited from earlier work
[1] = test system: middle cerebral artery occlusion (MCAO) model of stroke; conditions: rat, previously tested; cited from earlier work

Sequence of N-type calcium channel (Q00975 whole entry): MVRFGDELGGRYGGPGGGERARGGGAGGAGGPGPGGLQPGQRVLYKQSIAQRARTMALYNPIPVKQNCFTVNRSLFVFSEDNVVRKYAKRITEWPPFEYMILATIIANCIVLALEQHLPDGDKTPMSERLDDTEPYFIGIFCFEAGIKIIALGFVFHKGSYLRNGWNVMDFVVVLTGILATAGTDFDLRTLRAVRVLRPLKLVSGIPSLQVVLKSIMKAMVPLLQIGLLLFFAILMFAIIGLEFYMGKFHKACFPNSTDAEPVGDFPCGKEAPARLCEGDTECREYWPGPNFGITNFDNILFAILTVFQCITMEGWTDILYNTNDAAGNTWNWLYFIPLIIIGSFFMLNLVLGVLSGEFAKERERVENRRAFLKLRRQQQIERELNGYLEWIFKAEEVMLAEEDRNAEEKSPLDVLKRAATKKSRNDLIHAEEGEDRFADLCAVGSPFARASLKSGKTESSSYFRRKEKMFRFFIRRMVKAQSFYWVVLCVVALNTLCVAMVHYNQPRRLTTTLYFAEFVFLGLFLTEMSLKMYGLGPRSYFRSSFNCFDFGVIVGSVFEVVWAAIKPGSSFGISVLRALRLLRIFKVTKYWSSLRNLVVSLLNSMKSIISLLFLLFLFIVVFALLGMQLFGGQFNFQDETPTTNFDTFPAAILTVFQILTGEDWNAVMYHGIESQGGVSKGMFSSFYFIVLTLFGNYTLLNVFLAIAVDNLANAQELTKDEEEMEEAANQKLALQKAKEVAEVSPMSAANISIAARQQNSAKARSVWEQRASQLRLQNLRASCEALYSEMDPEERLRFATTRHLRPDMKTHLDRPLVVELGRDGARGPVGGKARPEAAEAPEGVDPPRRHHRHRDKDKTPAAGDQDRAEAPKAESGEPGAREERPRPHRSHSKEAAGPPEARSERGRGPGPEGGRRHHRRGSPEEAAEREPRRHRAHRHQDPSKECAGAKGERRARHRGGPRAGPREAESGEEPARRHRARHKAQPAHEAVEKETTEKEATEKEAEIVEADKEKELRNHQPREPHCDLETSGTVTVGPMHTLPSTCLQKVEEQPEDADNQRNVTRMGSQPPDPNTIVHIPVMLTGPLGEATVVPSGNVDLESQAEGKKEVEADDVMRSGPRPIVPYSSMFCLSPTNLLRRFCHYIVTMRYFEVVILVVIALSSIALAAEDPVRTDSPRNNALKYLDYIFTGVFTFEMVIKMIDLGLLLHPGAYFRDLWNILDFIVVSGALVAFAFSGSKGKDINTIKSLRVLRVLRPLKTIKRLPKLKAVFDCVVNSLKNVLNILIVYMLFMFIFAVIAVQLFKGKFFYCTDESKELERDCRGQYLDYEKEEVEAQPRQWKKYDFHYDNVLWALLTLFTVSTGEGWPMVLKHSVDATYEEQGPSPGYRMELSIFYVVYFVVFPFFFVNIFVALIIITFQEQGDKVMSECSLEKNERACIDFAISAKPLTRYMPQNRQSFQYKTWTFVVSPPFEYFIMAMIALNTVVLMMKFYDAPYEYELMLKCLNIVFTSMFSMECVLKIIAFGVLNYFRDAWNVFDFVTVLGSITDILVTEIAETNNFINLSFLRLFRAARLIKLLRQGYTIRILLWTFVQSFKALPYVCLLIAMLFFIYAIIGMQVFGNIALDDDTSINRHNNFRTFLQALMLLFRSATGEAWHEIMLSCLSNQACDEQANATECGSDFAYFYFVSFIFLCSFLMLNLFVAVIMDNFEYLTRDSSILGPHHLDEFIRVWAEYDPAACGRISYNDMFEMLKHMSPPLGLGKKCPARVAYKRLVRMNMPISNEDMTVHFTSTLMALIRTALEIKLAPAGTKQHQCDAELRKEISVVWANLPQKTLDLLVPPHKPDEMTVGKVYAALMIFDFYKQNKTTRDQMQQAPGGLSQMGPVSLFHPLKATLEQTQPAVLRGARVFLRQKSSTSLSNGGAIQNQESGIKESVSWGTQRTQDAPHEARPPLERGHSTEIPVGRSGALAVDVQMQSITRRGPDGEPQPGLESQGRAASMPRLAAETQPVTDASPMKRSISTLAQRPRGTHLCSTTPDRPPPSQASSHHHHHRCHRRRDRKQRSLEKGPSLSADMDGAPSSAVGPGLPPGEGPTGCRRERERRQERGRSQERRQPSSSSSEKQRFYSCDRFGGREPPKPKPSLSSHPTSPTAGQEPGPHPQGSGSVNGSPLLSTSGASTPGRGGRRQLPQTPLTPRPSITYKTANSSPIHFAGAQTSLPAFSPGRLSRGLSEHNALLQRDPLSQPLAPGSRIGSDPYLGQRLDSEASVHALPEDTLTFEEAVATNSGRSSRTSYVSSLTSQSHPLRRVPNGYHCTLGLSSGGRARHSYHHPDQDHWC

YGRKKRRQRRR [Tat]
Inhibition of the N-type calcium channel (N-type calcium channel): sufficient to induce the observed inhibition

YGRKKRRQRRRKLSSIESDV [Tat-NR2B9c, known neuroprotective peptide]
Neuroprotection (infarct size) [1]: neuroprotective as seen by a reduced infarct size
